Target: LgBiT-HaloTag
Test: luminescence saturation binding: VS-HiBiT titrated 200-0 nM against 0.2 nM fusion

LgBiT-HaloTag, sequence (chain, as listed by the source limits assumed): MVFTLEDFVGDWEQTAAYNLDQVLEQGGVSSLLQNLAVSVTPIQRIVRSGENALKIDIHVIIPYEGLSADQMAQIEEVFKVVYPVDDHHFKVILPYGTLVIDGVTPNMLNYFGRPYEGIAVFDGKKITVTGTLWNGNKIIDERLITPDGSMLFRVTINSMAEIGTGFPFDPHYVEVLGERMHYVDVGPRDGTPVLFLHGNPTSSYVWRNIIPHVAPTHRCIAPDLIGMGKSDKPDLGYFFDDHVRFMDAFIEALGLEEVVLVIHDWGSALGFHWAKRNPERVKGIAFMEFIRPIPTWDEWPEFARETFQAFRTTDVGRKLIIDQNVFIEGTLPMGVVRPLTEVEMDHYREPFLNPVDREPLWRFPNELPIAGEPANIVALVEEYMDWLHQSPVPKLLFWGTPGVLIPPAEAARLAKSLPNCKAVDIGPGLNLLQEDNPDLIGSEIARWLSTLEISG

fold complementation affinity (against the VS-HiBiT/HaloTag-LgBiT configuration): 3 fold
B1: VS-HiBiT peptide (peptide)
peptide: VSGWRLFKKIS
modifications: not checked

— patent US20240191211A1, “BIOLUMINESCENCE-TRIGGERED PHOTOCATALYTIC LABELING” (Promega Corporation, priority 2022, published 2024)
